Reference: patent US20200071382A1 (published 2020)

Target: T1, BMP9 (UniProt Q9UK05 320-429)
T1 construct: Ligand injected over the captured receptor protein
T1 sequence (looked up): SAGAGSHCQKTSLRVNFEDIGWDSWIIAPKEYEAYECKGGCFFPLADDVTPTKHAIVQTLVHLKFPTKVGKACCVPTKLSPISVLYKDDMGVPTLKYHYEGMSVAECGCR
Experiment: Biacore SPR; protein captured by anti-Fc antibody, ligand injected
Description: These protein complexes were independently captured in the system using an anti-Fc antibody. Ligands were injected and allowed to flow over the captured receptor protein. Results are summarized in the table below, in which ligand off-rates (kd) most indicative of effective ligand traps are denoted by bold text.

Kd: > 36 nM
B1: ENG(26-346)-Fc:Fc monomeric complex (Fc fusion)
chain: ETVHCDLQPVGPERDEVTYTTSQVSKGCVAQAPNAILEVHVLFLEFPTGPSQLELTLQASKQNGTWPREVLLVLSVNSSVFLHLQALGIPLHLAYNSSLVTFQEPPGVNTTELPSFPKTQILEWAAERGPITSAAELNDPQSILLRLGQAQGSLSFCMLEASQDMGRTLEWRPRTPALVRGCHLEGVAGHKEAHILRVLPGHSAGPRTVTVKVELSCAPGDLDAVLILQGPPYVSWLIDANHNMQIWTTGEYSFKIFPEKNIRGFKLPDTPQGLLGEARMLNASIVASFVELPLASIVSLHASSCGGRLQTSPAPIQTTPPTGGGTHTCPPCPAPELLGGPSVFLFPPKPKDTLMISRTPEVTCVVVDVSHEDPEVKFNWYVDGVEVHNAKTKPREEQYNSTYRVVSVLTVLHQDWLNGKEYKCKVSNKALPAPIEKTISKAKGQPREPQVYTLPPSRKEMTKNQVSLTCLVKGFYPSDIAVEWESNGQPENNYKTTPPVLKSDGSFFLYSKLTVDKSRWQQGNVFSCSVMHEALHNHYTQKSLSLSPGK
